# Laboratory results from patent US20070172423A1, “Composition and method for modulating vasculogenesis for angiogenesis” (priority 1998, published 2007).
# B1: PDGF-CC: recombinant human PDGF-CC core domain homodimer, residues 230-345 of full-length PDGF-C (SEQ ID NO:40), produced in baculovirus infected insect cells (protein)
# chain: GRKSRVVDLNLLTEEVRLYSCTPRNFSVSIREELKRTDTIFWPGCLLVKRCGGNCACCLHNCNECQCVPSKVTKKYHEVLQLRPKTGVRGLHKSLTDVALEHHEECDCVCRGSTGG
# modifications: homodimer; PDGF-C core domain
# Key:
# [1] = target: T1, human VEGFR-1 (Homo sapiens, UniProt P17948); test: Binding to soluble VEGFR-1-Ig fusion protein; settings: 35S-labeled protein in conditioned medium from 293 cells, precipitation with Ig-fusion protein
# T1 construct: soluble Ig-fusion proteins containing the extracellular domains of human VEGFR-1, VEGFR-2 and VEGFR-3; made in house; host or cells: human 293 EBNA cells, transient expression
# Experimental: To assess the interactions between full length and truncated PDGF-C and the VEGF receptors, full length and truncated PDGF-C were tested for their capacity to bind to soluble Ig-fusion proteins containing the extracellular domains of human VEGFR-1, VEGFR-2 and VEGFR-3 (Olofsson et al., Proc. Natl. Acad. Sci. USA, 1998 95:11709-11714). The fusion proteins, designated VEGFR-1-Ig, VEGFR-2-Ig and VEGFR-3-Ig, were transiently expressed in human 293 EBNA cells. All Ig fusion proteins were human VEGFRs. Cells were incubated for 24 hours after transfection, washed with Dulbecco's Modified Eagle Medium (DMEM) containing 0.2% bovine serum albumin and starved for 24 hours. The fusion proteins were then precipitated from the clarified conditioned medium using protein A-Sepharose beads (Pharmacia). The beads were combined with 100 microliters of 10× binding buffer (5% bovine serum albumin, 0.2% Tween 20 and 10 µg/ml heparin) and 900 microliter of conditioned medium from 293 cells that had been transfected with mammalian expression plasmids encoding full length or truncated PDGF-C or control vector, then metabolically labeled with ^35S-cysteine and methionine (Promix, Amersham) for 4 to 6 hours. […] Labeled proteins that were bound to the Ig-fusion proteins were analyzed by SDS-PAGE under reducing conditions. Radiolabeled proteins were detected using a phosphorimager analyzer.
# [2] = tested on: infarcted heart area; test: Revascularization following heart infarction (LAD ligation), Examples 16-17; format: in vivo, mice
# Experimental: Chronic myocardial ischemia was replicated by ligation of the left anterior descending (LAD) coronary artery using anesthetized 10 week old normal C57B16 mice. For PDGF-C treatment mice, 10 μg of recombinant human PDGF-CC core domain protein produced in baculovirus infected insect cells were administered after heart infarction using a subcutaneous osmotic minipump for seven days (ALZET™osmotic pump, DURECT Corporation, Cupertino, Calif.). Seven days after LAD ligation, infarcted hearts were fixed and collected. The PDGF-CC core domain protein (SEQ ID NO: 40) corresponds to corresponds to residues 230-345 of full-length PDGF-C protein i.e. amino acids 230-345 of SEQ ID NO:3. The hearts were sectioned longitudinally into 6 μm sections. Hematoxylin-eosine and immunohistochemical stainings were performed using thrombomodulin as a marker for endothelial cells. Smooth muscle alpha-actin was used as a marker for vascular smooth muscle cells. Infarcted areas and vessel densities were calculated using a Quantinet Q600 image analysis system (Leica, Brussels, Belgium). Data were statistically analyzed using the Student T test.
# The same experiment as discussed in Example 16 was repeated using 30 μg recombinant PDGF-C per mouse.
# [3] = tested on: ischemic myocardium; test: Myocardial ischemia mouse model, Example 18
# Experimental: Acute myocardial ischemia and hind limb ischemia mouse models were performed as previously described (Luttun et al., Nat Med, 2002 1:1; Heymans et al., Nat Med, 1999 5:1135-42). Subcutaneously implanted osmotic minipumps (Alzet, type 2001) were used for continuous protein delivery for 7 days. Human PDGF-CC core domain protein was produced as described (Li et al., Nat Cell Biol, 2000 2:302-309). Fluorescent or color dye microspheres (yellow, 15 μm, Molecular Probes) were administered after maximal vasodilatation (sodium nitroprusside, 50 ng/ml, Sigma) for blood flow measurement, and flow was calculated as described (Carmeliet et al., Nat Med, 1999 5:495-502). For histology, the hearts were harvested seven days after LAD ligation, and sectioned longitudinally (6 μm). Infarcted areas were morphologically inspected after immunohistochemistry staining using thrombomodulin (rabbit anti-TM, for all vessels) and smooth muscle alpha-actin (mouse anti-SMA, for mature SMC covered vessels, Dako), and vessel densities calculated. Gastrocnemius muscles after femoral artery ligation were sectioned transversally and analysed after H&E or immunostainings with the EC marker CD31 (PECAM, rat anti-CD31, Pharmingen). Vessel densities and tissue necrosis/regeneration in the gastrocnemius muscle were analyzed morphometrically using the KS300 image analysis soft ware (Zeiss). Remodeling of collateral vessels in the upper hindlimb after femoral ligation was quantified as reported (Luttun et al., Nat Med, 2002 1:1).
# A previously established mouse model of myocardial ischemia was used to assess whether PDGF-CC is capable of stimulating the revascularization of ischemic myocardium. After coronary ligation, new vessels revascularize the ischemic core from its surrounding border region. For PDGF-CC to stimulate new vessel growth, its receptor, PDGFR-α, should be expressed in the heart. […] To examine whether PDGF-CC could stimulate revascularization of the ischemic myocardium, we delivered, using a minipump, continuously over one week after coronary ligation, recombinant human PDGF-CC core domain protein, which is known to bind and activate PDGFR-α (Li et al., Nat Cell Biol, 2000 2:302-309). […] After seven days, angiogenesis was quantified by counting the number of endothelial cell (EC)-lined vessels in the ischemic area after immunolabeling with thrombomodulin (TM). Vessel maturation (arteriogenesis) was evaluated by counting the arterioles, immunoreactive for smooth muscle cell α-actin (SMA).
# [4] = 10 μg by osmotic minipump for seven days
# [5] = 10 μg by osmotic minipump for seven days, average ±SD
# [6] = 4.5 μg/day, minipump, seven days
# T1 sequence (P17948 27-758 limits assumed): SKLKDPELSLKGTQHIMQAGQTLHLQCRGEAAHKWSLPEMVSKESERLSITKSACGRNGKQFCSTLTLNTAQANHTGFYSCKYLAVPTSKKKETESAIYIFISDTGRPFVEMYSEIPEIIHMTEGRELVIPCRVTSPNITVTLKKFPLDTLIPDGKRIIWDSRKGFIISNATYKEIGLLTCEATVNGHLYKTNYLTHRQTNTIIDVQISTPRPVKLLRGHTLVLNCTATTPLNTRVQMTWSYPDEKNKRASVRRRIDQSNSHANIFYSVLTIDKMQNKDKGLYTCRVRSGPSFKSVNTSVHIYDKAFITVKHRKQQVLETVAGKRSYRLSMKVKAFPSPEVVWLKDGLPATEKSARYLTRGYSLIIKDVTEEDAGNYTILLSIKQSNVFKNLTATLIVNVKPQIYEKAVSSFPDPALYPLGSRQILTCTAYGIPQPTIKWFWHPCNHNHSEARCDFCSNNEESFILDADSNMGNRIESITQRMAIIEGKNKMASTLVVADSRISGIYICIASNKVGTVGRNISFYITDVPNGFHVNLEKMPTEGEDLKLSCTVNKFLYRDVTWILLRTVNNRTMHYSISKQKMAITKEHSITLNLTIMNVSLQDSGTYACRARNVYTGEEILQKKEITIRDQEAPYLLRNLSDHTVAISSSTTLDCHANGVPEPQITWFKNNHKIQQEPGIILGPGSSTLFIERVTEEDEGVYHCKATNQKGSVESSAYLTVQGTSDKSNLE
molecule,measurement,setting,value
B1,interaction with VEGFR-1-Ig,[1],failed to show any interaction
same,large vessel (>30 μm) density relative to normal (untreated) mice,[2]; [4],114%
same,medium vessel (10-30 μm) density relative to normal (untreated) mice,[2]; [4],111%
same,small vessel (<10 μm) density relative to normal (untreated) mice,[2]; [4],159.4%
same,large vessel (>30 μm) density,[2]; [5],8.3±3.2 large vessels/mm^2
same,medium vessel (10-30 μm) density,[2]; [5],14.5±3.7 medium vessels/mm^2
same,small vessel (<10 μm) density,[2]; [5],33.2±12.5 small vessels/mm^2
same,total vessel density,"[2]; 10 μg by osmotic minipump for seven days, average ±SD, n=6",56±16.6 total vessels/mm^2
same,total vessel density relative to normal (untreated) mice,"[2]; 10 μg by osmotic minipump for seven days, infarcted area",about 136%
same,SMA positive large vessel density relative to normal (untreated) mice,[2]; 30 μg per mouse over 7 days,114%
same,SMA positive medium vessel density relative to normal (untreated) mice,[2]; 30 μg per mouse over 7 days,142%
same,SMA positive small vessel density relative to normal (untreated) mice,[2]; 30 μg per mouse over 7 days,145%
same,thrombomodulin positive large vessel density relative to normal (untreated) mice,[2]; 30 μg per mouse over 7 days,167%
same,thrombomodulin positive medium vessel density relative to normal (untreated) mice,[2]; 30 μg per mouse over 7 days,153%
same,thrombomodulin positive small vessel density relative to normal (untreated) mice,[2]; 30 μg per mouse over 7 days,147%
same,total SMA positive vessel density relative to normal (untreated) mice,[2]; 30 μg per mouse over 7 days,141%
same,total thrombomodulin positive vessel density relative to normal (untreated) mice,[2]; 30 μg per mouse over 7 days,151%
same,TM-positive vessel density,"[3]; 1.5 μg/day, minipump, seven days",minimally affected
same,SMA positive vessels,"[3]; 1.5 μg/day, minipump, seven days, ischemic area",53.1±3.7 vessels/mm^2
same,increase in number of SMA-positive arterioles,"[3]; 1.5 μg/day, minipump, seven days, vs saline",1.36 fold
same,angiogenesis (TM-positive vessels in ischemic area),[3]; [6],significantly stimulated
same,arteriogenesis (SMA-positive arterioles in ischemic area),[3]; [6],significantly stimulated
same,blood flow (perfusion of the ischemic myocardial region),"[3]; 4.5 μg/day, n=7-9",2.2 ± 0.2 mL/min/g
same,"hemorrhage, edema or fibrosis in treated hearts","[3]; minipump, seven days","No signs of hemorrhage, edema or fibrosis"
same,"tolerability (weight loss, inactivity)","[3]; minipump, seven days",no signs of toxicity
same,vessel density in other organs,[3]; non-ischemic organs,no differences
